One may read the stoichiometry N as a count of units in the complex or per binding partner.

These results are taken from doi:10.1101/2023.06.08.544223.

For this assay, the target named is SPARDA complex (heterodimer of NbaAgo and DREN-APAZ), wild type (Novosphingopyxis baekryungensis). Description: SEC. For orientation: Size exclusion chromatography separates by hydrodynamic size, large species first.

“SPARDA complex (heterodimer of NbaAgo and DREN-APAZ), wild type”: the stoichiometry N worked out at 2.
